In test [1] the target is T1, 3T3 cells that over-express human cMet (Homo sapiens, UniProt P08581).
T1 construct: expressed in transfected cells; host or cells: 3T3 cells
Kind of test: Whole cell ELISA of peptide-displaying phage. In kind it is cell-based. Conditions: phage isolate; 3T3 cells expressing human cMet vs. non-expressing 3T3 cells. Here is the method: Whole cell ELISAs were performed using 3T3 cells that over-express human cMet. […] Briefly, 96-well plates were seeded with 10^5 cells per well. The plates were centrifuged for 5 minutes at 1600 rpm to pellet the cells. The resulting cell layer was fixed with 0.1% (v/v) glutaraldehyde for 12 minutes at 37 C. […] Peptide-displaying phage also were blocked in the above solution for 1 hour at 37 C. 100 μL of blocked phage was then added to each well and the plates were incubated for 1 hour at room temperature. The plates were washed with PBST. cMet-binding peptide-displaying phage were detected using an HRP-conjugated anti-M13 antibody.
For orientation: An ELISA detects its analyte on a solid surface through an enzyme-linked reagent.

The target of test [2] is cMet-Fc fusion protein (Homo sapiens, UniProt P08581). The test can be described thus: Protein phage ELISA: peptide-displaying phage binding to soluble cMet-Fc versus TRAIL-Fc. Conditions: phage isolate; cMet-Fc vs. TRAIL-Fc. Here is the method:
Protein phage ELISAs using peptide-displaying phage isolates from the various selection campaigns were performed to determine specificity of the peptides for cMet versus an unrelated Fc-fusion protein (TRAIL-Fc). Briefly, 384-well plates were coated overnight at 4 C with 0.5 μg/mL of cMet-Fc fusion protein or TRAIL-Fc fusion protein (background). The plates were blocked for 2 hours 37C with 3% (w/v) BSA in PBS containing 0.05% (v/v) Tween-20 (PBST). The plates were washed with PBST and 100 μL of peptide-displaying phage were added to each well. The plates were incubated for 2 hours at room temperature and washed with PBST. cMet-binding peptide-displaying phage were detected using an HRP-conjugated anti-M13 antibody.

Sequence of cMet-Fc fusion protein (P08581 25-307 limits assumed): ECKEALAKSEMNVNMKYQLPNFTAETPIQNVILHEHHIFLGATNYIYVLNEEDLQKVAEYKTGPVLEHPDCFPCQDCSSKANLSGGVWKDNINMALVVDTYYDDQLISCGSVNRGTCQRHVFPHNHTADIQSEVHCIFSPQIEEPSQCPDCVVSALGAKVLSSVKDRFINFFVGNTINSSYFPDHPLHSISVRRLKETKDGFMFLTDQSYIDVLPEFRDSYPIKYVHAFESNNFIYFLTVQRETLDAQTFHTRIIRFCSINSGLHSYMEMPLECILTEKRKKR
Sequence of cMet-Fc fusion protein (P08581 with tags, fused parts or gaps limits assumed): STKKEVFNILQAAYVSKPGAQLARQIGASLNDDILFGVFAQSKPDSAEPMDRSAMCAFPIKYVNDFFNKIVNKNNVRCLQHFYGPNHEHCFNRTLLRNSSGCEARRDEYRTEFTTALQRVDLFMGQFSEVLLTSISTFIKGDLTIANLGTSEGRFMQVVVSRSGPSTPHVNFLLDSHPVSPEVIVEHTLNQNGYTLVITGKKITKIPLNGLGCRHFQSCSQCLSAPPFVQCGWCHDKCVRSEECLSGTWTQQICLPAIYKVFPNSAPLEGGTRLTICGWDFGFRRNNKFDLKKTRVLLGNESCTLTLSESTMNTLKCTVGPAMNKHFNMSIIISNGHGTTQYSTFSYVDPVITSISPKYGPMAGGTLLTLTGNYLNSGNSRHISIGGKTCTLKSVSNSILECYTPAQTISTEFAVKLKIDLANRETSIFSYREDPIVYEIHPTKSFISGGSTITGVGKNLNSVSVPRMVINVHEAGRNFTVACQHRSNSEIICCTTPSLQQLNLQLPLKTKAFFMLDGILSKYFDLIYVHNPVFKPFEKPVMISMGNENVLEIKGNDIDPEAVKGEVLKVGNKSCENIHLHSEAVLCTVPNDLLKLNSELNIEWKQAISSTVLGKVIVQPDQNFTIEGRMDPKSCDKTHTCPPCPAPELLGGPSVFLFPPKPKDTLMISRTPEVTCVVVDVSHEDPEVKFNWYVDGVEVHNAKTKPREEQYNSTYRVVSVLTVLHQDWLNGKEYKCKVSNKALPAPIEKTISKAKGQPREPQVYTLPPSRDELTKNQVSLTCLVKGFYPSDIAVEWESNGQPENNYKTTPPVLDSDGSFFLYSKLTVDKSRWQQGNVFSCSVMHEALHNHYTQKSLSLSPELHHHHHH
T1 sequence (P08581 25-1390): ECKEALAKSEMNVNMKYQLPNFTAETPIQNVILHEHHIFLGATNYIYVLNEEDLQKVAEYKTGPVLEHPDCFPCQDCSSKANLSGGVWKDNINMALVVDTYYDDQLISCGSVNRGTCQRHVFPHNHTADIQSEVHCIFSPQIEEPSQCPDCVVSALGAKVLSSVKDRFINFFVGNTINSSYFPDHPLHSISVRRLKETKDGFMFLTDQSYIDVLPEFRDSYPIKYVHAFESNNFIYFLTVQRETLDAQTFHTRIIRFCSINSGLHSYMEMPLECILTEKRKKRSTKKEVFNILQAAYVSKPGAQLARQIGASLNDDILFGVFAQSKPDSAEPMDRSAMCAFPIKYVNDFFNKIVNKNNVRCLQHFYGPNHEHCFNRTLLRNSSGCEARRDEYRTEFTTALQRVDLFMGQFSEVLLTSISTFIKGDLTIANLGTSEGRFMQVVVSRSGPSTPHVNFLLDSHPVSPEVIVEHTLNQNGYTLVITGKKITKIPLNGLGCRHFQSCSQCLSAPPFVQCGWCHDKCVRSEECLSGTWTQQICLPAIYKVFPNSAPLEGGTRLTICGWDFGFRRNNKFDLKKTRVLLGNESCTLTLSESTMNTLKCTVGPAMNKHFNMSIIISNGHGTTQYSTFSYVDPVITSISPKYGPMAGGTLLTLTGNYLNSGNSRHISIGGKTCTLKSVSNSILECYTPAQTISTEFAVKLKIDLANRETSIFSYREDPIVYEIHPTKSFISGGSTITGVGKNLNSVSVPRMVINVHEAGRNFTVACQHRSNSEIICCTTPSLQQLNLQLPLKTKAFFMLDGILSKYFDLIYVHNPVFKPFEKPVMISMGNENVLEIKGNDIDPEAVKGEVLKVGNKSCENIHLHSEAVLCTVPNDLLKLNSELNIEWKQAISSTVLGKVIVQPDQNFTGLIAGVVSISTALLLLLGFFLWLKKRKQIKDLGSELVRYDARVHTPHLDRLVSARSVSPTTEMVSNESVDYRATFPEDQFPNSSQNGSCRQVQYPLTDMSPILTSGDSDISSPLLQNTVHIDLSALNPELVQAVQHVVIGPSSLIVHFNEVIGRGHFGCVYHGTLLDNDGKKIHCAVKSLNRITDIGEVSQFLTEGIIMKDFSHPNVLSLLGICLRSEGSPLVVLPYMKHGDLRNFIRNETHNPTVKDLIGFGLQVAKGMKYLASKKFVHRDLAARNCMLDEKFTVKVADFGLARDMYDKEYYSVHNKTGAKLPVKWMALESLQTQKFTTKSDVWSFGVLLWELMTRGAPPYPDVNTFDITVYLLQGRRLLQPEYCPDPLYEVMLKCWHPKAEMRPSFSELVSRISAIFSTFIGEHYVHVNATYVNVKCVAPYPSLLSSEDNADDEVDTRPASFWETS

For `CSCC[C@H](NC(=O)[C@H](CCCNC(=N)N)NC(=O)[C@H](Cc1c[nH]c2ccccc12)NC(=O)[C@H](CO)NC(=O)[C@H](CO)NC(=O)[C@H](CC(C)C)NC(=O)[C@H](Cc1ccccc1)NC(=O)[C@H](CC(=O)O)NC(=O)[C@H](CC(C)C)NC(=O)[C@H](Cc1ccc(O)cc1)NC(=O)[C@H](Cc1c[nH]c2ccccc12)NC(=O)[C@H](Cc1ccc(O)cc1)NC(=O)[C@@H]1CCCN1C(=O)[C@H](CCC(=O)O)NC(=O)[C@H](CCC(=O)O)NC(=O)[C@@H](NC(=O)[C@H](CCC(=O)O)NC(=O)[C@H](CCCNC(=N)N)NC(=O)[C@H](CCC(N)=O)NC(=O)[C@H](C)NC(C)=O)C(C)C)C(=O)N[C@@H](Cc1c[nH]cn1)C(=O)N[C@@H](CCC(=O)O)C(=O)NCC(=O)NCC(=O)NCC(=O)N[C@@H](CCCCNC(=O)c1ccc2c(c1)C(=O)OC21c2ccc(O)cc2Oc2cc(O)ccc21)C(N)=O` [SEQ ID NO: 451], in test [1], the “WC ELISA” value is recorded as 1.33 fold over background. In addition, in test [2], the “Protein ELISA” value was found to be 8.2 fold over background.

Take “AQMWHRVHDPGYTFEVTWLWDN (Synthetically generated cMet-binding peptide sequence) [SEQ ID NO: 488]”: in test [1], the “WC ELISA” value is 1.27 fold over background. Moreover, in test [2], the “Protein ELISA” value is 3.0 fold over background.

With `CSCC[C@H](NC(=O)CNC(=O)[C@@H]1CCCN1C(=O)[C@H](CO)NC(=O)[C@H](CO)NC(=O)[C@H](Cc1c[nH]c2ccccc12)NC(=O)[C@H](CCCNC(=N)N)NC(=O)[C@H](CCC(N)=O)NC(=O)[C@H](C)NC(C)=O)C(=O)N[C@@H](CO)C(=O)N[C@@H](CCC(N)=O)C(=O)N[C@@H](CO)C(=O)N[C@@H](Cc1ccccc1)C(=O)N[C@H](C(=O)N[C@@H](CC(C)C)C(=O)N[C@@H](CCC(=O)O)C(=O)N[C@@H](Cc1c[nH]c2ccccc12)C(=O)N[C@@H](CCCCN)C(=O)N[C@@H](Cc1c[nH]c2ccccc12)C(=O)N[C@@H](CC(N)=O)C(=O)N[C@@H](CC(=O)O)C(=O)N[C@@H](CC(N)=O)C(=O)NCC(=O)NCC(=O)NCC(=O)N[C@@H](CCCCNC(=O)c1ccc2c(c1)C(=O)OC21c2ccc(O)cc2Oc2cc(O)ccc21)C(N)=O)C(C)C` [SEQ ID NO: 453], the “WC ELISA” value in test [1] worked out at 1.30 fold over background. In addition, the “Protein ELISA” value in test [2] stood at 11.3 fold over background.

Turning to “GSRFHCWQGDLMQTYCMPMAP (Synthetically generated cMet-binding peptide sequence) [SEQ ID NO: 376]”, the “WC ELISA” value in test [1] worked out at 1.30 fold over background. In test [2], the “Protein ELISA” value is on record as 3.0 fold over background.

As for “AGDFICQGPPSFVCTNIGT (Synthetically generated cMet-binding peptide sequence) [SEQ ID NO: 097]”, the “WC ELISA” value in test [1] is on record as 1.27 fold over background. Moreover, the “Protein ELISA” value in test [2] is reported as 8.4 fold over background.

With “GSYYDCREFQCNKPAP (Synthetically generated cMet-binding peptide sequence) [SEQ ID NO: 002]”, the “WC ELISA” value in test [1] was 1.33 fold over background. Further, the “Protein ELISA” value in test [2] is given as 4.4 fold over background.

With `CC(=O)N[C@@H](C)C(=O)N[C@@H](CCC(N)=O)C(=O)N[C@@H](CC(=O)O)C(=O)N[C@@H](CC(C)C)C(=O)N[C@@H](CCCCN)C(=O)N1CCC[C@H]1C(=O)N[C@@H](Cc1c[nH]c2ccccc12)C(=O)N[C@H](C(=O)N[C@@H](C)C(=O)NCC(=O)N[C@@H](Cc1c[nH]c2ccccc12)C(=O)N[C@@H](CCC(=O)O)C(=O)N1CCC[C@H]1C(=O)N1CCC[C@H]1C(=O)N[C@@H](Cc1c[nH]c2ccccc12)C(=O)N[C@@H](CC(C)C)C(=O)N[C@@H](Cc1c[nH]c2ccccc12)C(=O)N[C@H](C(=O)N[C@@H](CC(=O)O)C(=O)N[C@@H](CCCNC(=N)N)C(=O)NCC(=O)N1CCC[C@H]1C(=O)NCC(=O)NCC(=O)NCC(=O)N[C@@H](CCCCNC(=O)c1ccc2c(c1)C(=O)OC21c2ccc(O)cc2Oc2cc(O)ccc21)C(N)=O)[C@@H](C)O)[C@@H](C)O` [SEQ ID NO: 461], the “WC ELISA” value in test [1] was 1.30 fold over background. For the same compound, the “Protein ELISA” value in test [2] turned out to be 5.0 fold over background.

“AGHTICQHKALGCPANGT (Synthetically generated cMet-binding peptide sequence) [SEQ ID NO: 041]”: the “WC ELISA” value in test [1] was found to be 1.27 fold over background. Also, in test [2], the “Protein ELISA” value is on record as 3.1 fold over background.

Take “AQKTWFLEADLFQMFQEVTWQF (Synthetically generated cMet-binding peptide sequence) [SEQ ID NO: 490]”: the “WC ELISA” value in test [1] came out at 1.40 fold over background. Besides, the “Protein ELISA” value in test [2] stood at 3.0 fold over background.

In the case of “GDHRKCEISAKTHEVTCYDNDP (Synthetically generated cMet-binding peptide sequence) [SEQ ID NO: 402]”, the “WC ELISA” value in test [1] was found to be 1.17 fold over background. Moreover, the “Protein ELISA” value in test [2] is given as 5.2 fold over background.

For “AGQMWCAEKNSKCYQWGT (Synthetically generated cMet-binding peptide sequence) [SEQ ID NO: 030]”, in test [1], the “WC ELISA” value is listed as 1.27 fold over background. Further, in test [2], the “Protein ELISA” value was 3.2 fold over background.

Turning to “AGYFECKGPPTFECWLSGT (Synthetically generated cMet-binding peptide sequence) [SEQ ID NO: 060]”, in test [1], the “WC ELISA” value is 1.43 fold over background. Further, the “Protein ELISA” value in test [2] is listed as 8.1 fold over background.

“AGTVYCSWESSECWWVGT (Synthetically generated cMet-binding peptide sequence) [SEQ ID NO: 019]”: the “WC ELISA” value in test [1] is on record as 1.37 fold over background. Also, the “Protein ELISA” value in test [2] was found to be 3.9 fold over background.

For “GDASMCYDGLALRWDQCWPHDP (Synthetically generated cMet-binding peptide sequence) [SEQ ID NO: 404]”, the “WC ELISA” value in test [1] was 1.30 fold over background. The “Protein ELISA” value in test [2] is reported as 3.4 fold over background.

On to “AQAEWVITSEEFYWKMADFGPP (Synthetically generated cMet-binding peptide sequence) [SEQ ID NO: 478]”, for which the “WC ELISA” value in test [1] worked out at 1.23 fold over background. The “Protein ELISA” value in test [2] was determined as 3.4 fold over background.

On to “GSEYSCRTSRCIFSAP (Synthetically generated cMet-binding peptide sequence) [SEQ ID NO: 006]”, for which the “WC ELISA” value in test [1] was 1.33 fold over background. The “Protein ELISA” value in test [2] is listed as 3.2 fold over background.

On to “GSHHTCLDGFAGWRCTEVAP (Synthetically generated cMet-binding peptide sequence) [SEQ ID NO: 366]”, for which, in test [1], the “WC ELISA” value is on record as 1.33 fold over background. Further, in test [2], the “Protein ELISA” value came out at 10.4 fold over background.

For the compound “AQMYQTPDGVIGKFVDWMFN (Synthetically generated cMet-binding peptide sequence) [SEQ ID NO: 455]”, in test [1], the “WC ELISA” value is recorded as 1.33 fold over background. Besides, in test [2], the “Protein ELISA” value was found to be 8.0 fold over background.

Consider “AGVIVCNLSMMYCLYPGT (Synthetically generated cMet-binding peptide sequence) [SEQ ID NO: 023]”, for which, in test [1], the “WC ELISA” value is on record as 1.33 fold over background. The “Protein ELISA” value in test [2] is 3.2 fold over background.

As to “AGETFCSGWPTFECMQWGT (Synthetically generated cMet-binding peptide sequence) [SEQ ID NO: 095]”, the “WC ELISA” value in test [1] came to 1.23 fold over background. The “Protein ELISA” value in test [2] worked out at 16.2 fold over background.

(Values after patent US9845340B2, “Peptides that specifically bind HGF receptor (cMet) and uses thereof” (Dyax Corp., priority 2003, dated 2017).)
